B1: 4A7 hu-5 (Fc fusion)
chain: EVQLLESGGGLVQPGGSLRLSCAASGRTFSTNVMGWFRQAPGKGLEFVSAISRAGSTYSADSVKGRFTISRDNSKNTLYLQMNSLRAEDTAVYYCAAGSSPTAIFGKSGMDYWGQGTQVTVSSGGGGSGGGGSDKTHTCPPCPAPEAAGAPSVFLFPPKPKDTLMISRTPEVTCVVVDVSHEDPEVKFNWYVDGVEVHNAKTKPREEQYNSTYRVVSVLTVLHQDWLNGKEYKCAVSNKALPAPIEKTISKAKGQPREPQVYTLPPSRDELTKNQVSLTCLVKGFYPSDIAVEWESNGQPENNYKTTPPVLDSDGSFFLYSKLTVDKSRWQQGNVFSCSVMHEALHNHYTQKSLSLSP
notes: Humanized VHH-Fc antibody
B2: 4A7 hu-13 (Fc fusion)
chain: B1 chain with T31S, N32Y
notes: Humanized VHH-Fc antibody
B3: 4A7 hu-4 (Fc fusion)
chain: B1 chain with F37V
notes: Humanized VHH-Fc antibody
B4: 4A7 hu-11 (Fc fusion)
chain: B1 chain with T31S, N32Y, F47W
notes: Humanized VHH-Fc antibody
B5: 4A7 hu-1 (Fc fusion)
chain: B1 chain with G35S, F37V, F47W, S59Y
notes: Humanized VHH-Fc antibody
B6: 4A7 hu-3 (Fc fusion)
chain: B1 chain with F47W
notes: Humanized VHH-Fc antibody
B7: 4A7 hu-14 (Fc fusion)
chain: B1 chain with P14A, T31S, N32Y
notes: Humanized VHH-Fc antibody
B8: 4A7 hu-10 (Fc fusion)
chain: B1 chain with T31S, N32Y, F37V, F47W
notes: Humanized VHH-Fc antibody
B9: 4A7 hu-6 (Fc fusion)
chain: B1 chain with P14A
notes: Humanized VHH-Fc antibody
B10: 4A7 hu-15 (Fc fusion)
chain: B1 chain with T31S, N32Y, L45R
notes: Humanized VHH-Fc antibody
B11: 4A7 hu-12 (Fc fusion)
chain: B1 chain with T31S, N32Y, F37V
notes: Humanized VHH-Fc antibody
B12: 4A7 hu-8 (Fc fusion)
chain: B1 chain with G44E, L45R
notes: Humanized VHH-Fc antibody
B13: 4A7 hu-9 (Fc fusion)
chain: B1 chain with T31S, N32Y, G35S, F37V, F47W, S59Y
notes: Humanized VHH-Fc antibody
B14: 4A7 hu-16 (Fc fusion)
chain: B1 chain with T31S, N32Y, G44E, L45R
notes: Humanized VHH-Fc antibody
B15: 4A7 hu-2 (Fc fusion)
chain: B1 chain with F37V, F47W
notes: Humanized VHH-Fc antibody
B16: 4A7 hu-7 (Fc fusion)
chain: B1 chain with L45R
notes: Humanized VHH-Fc antibody
B17: 3C6 hu-5 (Fc fusion)
chain: EVQLVESGGGLIQPGGSLRLSCAASGNIGSIRHMGWHRQAPGKERELVSTITTVGTTYYANFVKGRFTISRDNSKNTLYLQMNSLRAEDTAVYYCRATAHPTDYWGQGTLVTVSSGGGGSGGGGSDKTHTCPPCPAPEAAGAPSVFLFPPKPKDTLMISRTPEVTCVVVDVSHEDPEVKFNWYVDGVEVHNAKTKPREEQYNSTYRVVSVLTVLHQDWLNGKEYKCAVSNKALPAPIEKTISKAKGQPREPQVYTLPPSRDELTKNQVSLTCLVKGFYPSDIAVEWESNGQPENNYKTTPPVLDSDGSFFLYSKLTVDKSRWQQGNVFSCSVMHEALHNHYTQKSLSLSP
notes: Humanized VHH-Fc antibody: VHH, linker, human IgG1 Fc
B18: 3C6 hu-3 (Fc fusion)
chain: B17 chain with R45L
notes: as for B17
B19: 3C6 hu-1 (Fc fusion)
chain: B17 chain with H37V, E44G, R45L, L47W
notes: as for B17
B20: 3C6 hu-7 (Fc fusion)
chain: B17 chain with L47W, S49A
notes: as for B17
B21: 3C6 hu-2 (Fc fusion)
chain: B17 chain with E44G, R45L
notes: as for B17
B22: 3C6 hu-6 (Fc fusion)
chain: B17 chain with S49A
notes: as for B17
B23: 3C6 hu-4 (Fc fusion)
chain: B17 chain with E44G
notes: as for B17
B24: 3C6 hu-8 (Fc fusion)
chain: B17 chain with H37V, S49A
notes: as for B17
B25: alpaca nanobody 3C6 (VHH)
VHH: EVQLVESGGGLVQAGESLRLSCAVSGNIGSIRHMGWHRQDPGKERELVATITTVGTTYYANFVKGRFTISRDNAKNTVYLQMNSLKPEDTGVYYCRATAHPTDYWGQGTQVTVSS
notes: also called anti-MSLN nanobody 3C6

Substitutions are numbered along the chain they refer to.

One test addresses T1, monkey PD-L1 protein (Kactus Biosystems, PDL-CM210) (monkey).
T1 construct: Bought protein; also called Monkey PDL1-Fc
The experiment in a line: Carterra HC30M chip, antibody captured via anti-DYKDDDDK, PD-L1 as analyte. The procedure: (§1) The anti-[…] antibody was bound to the HC30M chip via amino coupling, then 2 μg/mL of humanized PD-L1 single-domain antibody was captured. […] Kinetic constants were obtained by fitting with Carteria software.
The molecule B1 came in with a Kd of 94.3 nM.

The molecule B2 gave a Kd of 72.8 nM.

In the case of B3, the Kd turned out to be 112 nM.

Molecule B4 yielded a dissociation constant (Kd) of 828 nM.

Consider B5, for which binding was characterised by a dissociation constant (Kd) of 1320 nM.

Molecule B6 registered a Kd of 599 nM.

Regarding B7, the Kd amounted to 76.5 nM.

Molecule B8 returned a Kd of 622 nM.

B9 came in with a Kd of 99 nM.

B10 had a Kd of 60.7 nM.

The molecule B11 showed a Kd of 94.5 nM.

With B12, the Kd was found to be 57.5 nM.

For the molecule B13, the Kd was 609 nM.

In the case of B14, the Kd stood at 75.3 nM.

With B15, binding was put at a Kd of 367 nM.

The molecule B16 had a Kd of 61.7 nM.

For another test, the target named is T2, mouse PD-L1 protein (ACRO, PD1-M5251) (mouse, UniProt Q9EP73 19-238).
T2 construct: Bought protein; also called Mouse PDL1-Fc
T2 sequence (Q9EP73 19-238): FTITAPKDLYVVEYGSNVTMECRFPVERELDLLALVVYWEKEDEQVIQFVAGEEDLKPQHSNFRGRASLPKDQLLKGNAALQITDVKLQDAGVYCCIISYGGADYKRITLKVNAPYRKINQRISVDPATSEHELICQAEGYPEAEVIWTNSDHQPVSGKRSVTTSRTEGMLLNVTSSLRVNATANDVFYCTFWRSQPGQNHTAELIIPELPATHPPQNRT
Described as above. As for the experimental part: as §1
B1 gave a Kd of 9.72 nM.

On to B2, for which binding was put at a Kd of 10.7 nM.

The molecule B3 showed a Kd of 21 nM.

The molecule B4 came in with a Kd of 154 nM.

Turning to B5, binding was characterised by a dissociation constant (Kd) of 143 nM.

In the case of B6, the Kd worked out at 122 nM.

In turn, B7 showed a Kd of 9.7 nM.

Regarding B8, the dissociation constant (Kd) was determined as 197 nM.

B9 had a Kd of 9.59 nM.

In the case of B10, the Kd was determined as 9.97 nM.

In turn, B11 displayed a dissociation constant (Kd) of 19.5 nM.

For the molecule B12, the Kd worked out at 10.4 nM.

Turning to B13, the Kd was 146 nM.

Regarding B14, the Kd stood at 9.82 nM.

Take B15: the Kd came to 408 nM.

Molecule B16 registered a Kd of 9.76 nM.

For another test, the target named is T3, human PD-L1 protein (ACRO, PD1-H5258) (human, UniProt Q9NZQ7 19-238).
T3 construct: Bought protein; also called Human PDL1-Fc
T3 sequence (Q9NZQ7 19-238): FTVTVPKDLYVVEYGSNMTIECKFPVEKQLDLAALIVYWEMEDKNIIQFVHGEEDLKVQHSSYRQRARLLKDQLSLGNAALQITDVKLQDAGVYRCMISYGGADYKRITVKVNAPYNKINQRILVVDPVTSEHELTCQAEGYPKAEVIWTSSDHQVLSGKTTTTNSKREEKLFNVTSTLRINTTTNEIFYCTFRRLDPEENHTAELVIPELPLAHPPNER
Described as above. As for the experimental part: as §1
B1: binding was characterised by a dissociation constant (Kd) of 141 nM.

The molecule B2 registered a Kd of 58.7 nM.

In turn, B3 returned a Kd of 175 nM.

In the case of B4, the affinity, expressed as Kd, was 796 nM.

For the molecule B6, the Kd worked out at 1630 nM.

As to B7, the Kd was determined as 60.9 nM.

As for B8, the Kd is 805 nM.

For the molecule B9, the Kd was 136 nM.

For B10, the affinity, expressed as Kd, was 54.9 nM.

The molecule B11 returned a Kd of 79 nM.

As for B12, the affinity, expressed as Kd, was 92.7 nM.

In turn, B13 displayed a Kd of 652 nM.

The molecule B14 yielded a dissociation constant Kd of 45.1 nM.

Take B16: the Kd was 127 nM.

The next test has as its target T4, cynoMSLN-Fc (Kactus Biosystems, MSL-CM280) (cyno (monkey)).
T4 construct: Bought protein; also called monkey MSLN
Nature of the test: Carterra HC30M chip, antibody captured via anti-DYKDDDDK, antigen as analyte. The procedure:
(§2) The anti-[…] antibody was bound to the HC30M chip via amino coupling, and then 2 μg/mL of MSLN single-domain antibody was captured. After the baseline was stabilized, gradient diluted huMSLN-Fc (Kactus Biosystems, MSL-HM280) and cynoMSLN-Fc (Kactus Biosystems, MSL-CM280) (starting from 100 nM, gradient dilution) were flowed through the chip from low to high concentrations, respectively, with a binding time of 8 minutes and a dissociation time of 20 minutes. Kinetic constants were obtained by fitting with Carteria software.
Molecule B17 showed a Kd of 1.66 nM, a koff of 0.000914 s⁻¹ and an association rate constant (kon) of 551000 M⁻¹ s⁻¹.

As for B18, binding was put at a Kd of 2.74 nM, the koff was 0.00125 s⁻¹ and the kon turned out to be 455000 M⁻¹ s⁻¹.

On to B19, for which the equilibrium dissociation constant (Kd) was 3.67 nM, the koff came to 0.00151 s⁻¹ and the kon was found to be 412000 M⁻¹ s⁻¹.

Regarding B20, the Kd was 4.79 nM, the koff was 0.00244 s⁻¹ and the kon was 510000 M⁻¹ s⁻¹.

Turning to B21, the Kd stood at 11.4 nM, the koff worked out at 0.00426 s⁻¹ and the kon came out at 374000 M⁻¹ s⁻¹.

Turning to B22, binding was put at a Kd of 1.78 nM, the off-rate (koff) turned out to be 0.00115 s⁻¹ and the kon was determined as 644000 M⁻¹ s⁻¹.

In the case of B23, binding was characterised by a dissociation constant (Kd) of 5.58 nM, the koff amounted to 0.00285 s⁻¹ and the kon turned out to be 511000 M⁻¹ s⁻¹.

In turn, B24 showed a Kd of 17.3 nM, a koff of 0.0165 s⁻¹ and a kon of 956000 M⁻¹ s⁻¹.

For B25, binding was characterised by a dissociation constant (Kd) of 1.04 nM, the koff came out at 4.69e-05 s⁻¹ and the kon stood at 45300 M⁻¹ s⁻¹.

A further test deals with T5, hFc-tagged human MSLN recombinant protein (huMSLN-hFc, Kactus Biosystems, MSL-HM280) (human, UniProt Q13421 296-580).
T5 construct: Bought protein; also called huMSLN-Fc; human MSLN-Fc
T5 sequence (Q13421 other isoform, or with tags, fused parts or gaps): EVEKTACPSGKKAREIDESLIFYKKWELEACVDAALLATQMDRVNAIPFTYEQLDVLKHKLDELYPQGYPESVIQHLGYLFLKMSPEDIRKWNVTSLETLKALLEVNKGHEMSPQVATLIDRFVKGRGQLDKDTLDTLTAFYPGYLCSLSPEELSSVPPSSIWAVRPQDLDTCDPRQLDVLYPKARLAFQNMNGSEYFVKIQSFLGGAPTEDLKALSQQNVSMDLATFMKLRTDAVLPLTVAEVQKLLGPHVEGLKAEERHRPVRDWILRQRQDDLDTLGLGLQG
The description is as above. As for the experimental part: as §2
Consider B17, for which the Kd was 2.26 nM, the koff was found to be 0.00175 s⁻¹ and the kon was determined as 772000 M⁻¹ s⁻¹.

With B18, the Kd is 3.56 nM, the koff is 0.00218 s⁻¹ and the kon is 611000 M⁻¹ s⁻¹.

Regarding B19, the Kd was determined as 2.69 nM, the koff turned out to be 0.00187 s⁻¹ and the kon is 695000 M⁻¹ s⁻¹.

In the case of B20, the Kd was 4.94 nM, the koff was found to be 0.00277 s⁻¹ and the kon is 560000 M⁻¹ s⁻¹.

In the case of B21, the dissociation constant (Kd) is 13.5 nM, the off-rate (koff) was found to be 0.00732 s⁻¹ and the kon was 540000 M⁻¹ s⁻¹.

As for B22, the Kd stood at 2.25 nM, the koff is 0.00185 s⁻¹ and the kon was determined as 820000 M⁻¹ s⁻¹.

In the case of B23, the Kd came to 4.89 nM, the koff is 0.00471 s⁻¹ and the kon is 963000 M⁻¹ s⁻¹.

As for B24, the dissociation constant Kd was determined as 12 nM, the koff is 0.0315 s⁻¹ and the kon is 2.63e+06 M⁻¹ s⁻¹.

Take B25: the Kd was found to be 5.66 nM, the koff came out at 0.000304 s⁻¹ and the kon worked out at 53600 M⁻¹ s⁻¹.

Source of the values: patent US20260201058A1 (SICHUAN HUIYU PHARMACEUTICAL, published 2026).
